From patent US20230272048A1 (UNIVERSITY OF MELBOURNE, published 2023)

B1: VRC01 (antibody, V domains shown)
VH: QVQLVQSGGQMKKPGESMRISCRASGYEFIDCTLNWIRLAPGKRPEWMGWLKPRGGAVNYARPLQGRVTMTRDVYSDTAFLELRSLTVDDTAVYFCTRGKNCDYNWDFEHWGRGTPVIVSS
VL: EIVLTQSPGTLSLSPGETAIISCRTSQYGSLAWYQQRPGQAPRLVIYSGSTRAAGIPDRFSGSRWGPDYNLTISNLESGDFGVYYCQQYEFFGQGTKVQVDI
B2: 1842 heavy chain with NC-Cow1 light chain (antibody)
VH: KVQLQESGPSLVKPSQTLSLTCTASGFSLSDKAVGWVRQAPGQALEWLGSIDTGGNADYNPGLKSRLSITKDNAKSQVSLSVSSVTTEGSATYYCSTVHQKTLRSCPSDYPYICDCEDTGSHCCRATNCPYYCNHGRDRMCTGRTYTYEWHVEAWGQGLLVTVSS
VL: HSYELTQPSSVSGSLGQRVSVTCSGSSSNVGNGYVSWYQLIPGSAPRTIIYGDTSRASGVPERFSGSRSGNTATLTISSLQAEDEADFFCASPDDSSSNAVFGSGTTLTVL
B3: 1872 heavy chain with NC-Cow1 light chain (antibody)
VH: KVQLRESGPSLVKPSQTLSLTCTASGFSLSDKAVGWVRQAPGQPLEWLGTIDTTGNAVYNPGLKSRLSITKDNSKSQVSLSLSSVTTEDSATYHCSTVHQKTRRSCPSDYSFICDCEGTGSHCCRASNCPYYCNYGRDRMCTGRSNIHEWHVDAWGQGLLVTVSS
VL: B2 VL

Molecular target: AD8 WT Env (gp160, from lysed pseudovirions / on pseudovirus) (HIV-1 AD8, clade B)
Experiment: cell-based or functional assay

Row | Binder | IC50 (read off the curve); axis Neutralisation (%), panel AD8 [ng/mL]
1 | B1 | ~300
2 | B2 | ~5
3 | B3 | ~7
